Laboratory results: patent US20150132277A1 (Scripps Research, published 2015)

B4: human T2-WRS (residues 94-471 of full-length tryptophanyl-tRNA synthetase) with C-terminal His6 tag (enzyme)
chain: SAKGIDYDKLIVRFGSSKIDKELINRIERATGQRPHHFLRRGIFFSHRDMNQVLDAYENKKPFYLYTGRGPSSEAMHVGHLIPFIFTKWLQDVFNVPLVIQMTDDEKYLWKDLTLDQAYSYAVENAKDIIACGFDINKTFIFSDLDYMGMSSGFYKNVVKIQKHVTFNQVKGIFGFTDSDCIGKISFPAIQAAPSFSNSFPQIFRDRTDIQCLIPCAIDQDPYFRMTRDVAPRIGYPKPALLHSTFFPALQGAQTKMSASDPNSSIFLTDTAKQIKTKVNKHAFSGGRDTIEEHRQFGGNCDVDVSFMYLTFFLEDDDKLEQIRKDYTSGAMLTGELKKALIEVLQPLIAEHQARRKEVTDEIVKEFMTPRKLSFDFQHHHHHH
notes: In monomer-dimer equilibrium; also called WT T2-WRS; WT T2-TrpRS
B5: VE-Cadherin extracellular domain EC1 (residues 48-155 of full-length VE-Cadherin), tag-free (other)
chain: DWIWNQMHIDEEKNTSLPHHVGKIKSSVSRKNAKYLLKGEYVGKVFRVDAETGDVFAIERLDRENISEYHLTAVIVDKDTGENLETPSSFTIKVHDVNDNWPVFTHRL
notes: Expressed as a GST fusion; also called VE-EC1; VE-Cadherin EC1 domain

Key:
[1] = molecular target: the molecule itself; assay: disulfide crosslinking across the dimer interface, SDS-PAGE with and without DTT
Protocol: All proteins were expressed and purified as mentioned above, except that no beta-mercaptoethanol was added. The purified proteins were diluted to 1 mg/ml in 25 mM HEPES (pH7.5, 150 mM NaCl) and incubated for 15 minutes at 4° C. with or without 10 mM DTT (dithiothreitol). Proteins samples (10 μl) were mixed with an equal amount of 2× loading buffer (without reducing reagent) and boiled for 1 min before loading onto a SDS-PAGE gel.

[2] = molecular target: the molecule itself; assay: gel chromatography with immunoblotting of fractions (YRS polyclonal antibody); dimer-monomer equilibrium
Protocol: (§1) Each protein sample (200 μl of 20 μM) was injected to Superdex 200 chromatography column (GE Healthcare, 10/300GL) in PBS containing 5 mM β-mercaptoethanol. The column was then calibrated by standard proteins. […] To determine the dissociation constant for dimer-monomer equilibrium, gel chromatography was carried out as a function of protein concentration.

[3] = molecular target: the molecule itself; assay: gel chromatography; dimer-monomer equilibrium, reference Δ159-161 mini-YRS
Protocol: as §1

[4] = molecular target: B5; assay: SPR (Biacore), T2-WRS variant amine-coupled to CM5 chip, EC1 domain in flow, 0.1 mM ZnCl2, kinetic titration fitting; monomer F260EY201EI278E T2-WRS on the chip, EC1 in flow
[5] = molecular target: the molecule itself; assay: size exclusion chromatography, 100 nM to 10 uM; percentage of dimers against concentration; dimer-monomer dissociation constant
[6] = molecular target: the molecule itself; assay: size exclusion chromatography, percent dimer plotted against protein concentration; dimer-monomer dissociation constant
[7] = molecular target: B4; assay: SPR (Biacore), T2-WRS amine-coupled to CM5 chip, EC1 domain in flow, 0.1 mM ZnCl2, kinetic titration fitting; WT T2-WRS on the chip, EC1 in flow
[8] = molecular target: the molecule itself; assay: gel filtration chromatography as a function of protein concentration; dimer-monomer equilibrium
Protocol: as §1

[9] = molecular target: the molecule itself; assay: Superdex 200 gel filtration, 0.5-2 µM, self-association
Protocol: E. coli Flavodoxin was inserted at the position of G310 on the peripheral region of the KRS dimer interface. The linker was kept short to reduce the potential structural flexibility. […] All proteins were loaded at a concentration range of 0.5-2 μM. […] BSA is bovine serum albumin.
The peak fractions were analyzed by SDS-PAGE and visualized by Coomassie blue staining.

B1: native human KRS (70-584) with T285C mutation (enzyme)
chain: not shown
modifications: disulfide between Cys 285 of the two subunits in the absence of DTT
notes: also called native KRST285C
[1]
  binding result: binds

B2: wild-type (WT) human mini-YRS (N-terminal fragment of human tyrosyl-tRNA synthetase) (enzyme)
chain: MGDAPSPEEKLHLITRNLQEVLGEEKLKEILKERELKIYWGTATTGKPHVAYFVPMSKIADFLKAGCEVTILFADLHAYLDNMKAPWELLELRVSYYENVIKAMLESIGVPLEKLKFIKGTDYQLSKEYTLDVYRLSSVVTQHDSKKAGAEVVKQVEHPLLSGLLYPGLQALDEEYLKVDAQFGGIDQRKIFTFAEKYLPALGYSKRVHLMNPMVPGLTGSKMSSSEEESKIDLLDRKEDVKKKLKKAFCEPGNVENNGVLSFIKHVLFPLKSEFVILRDEKWGGNKTYTAYVDLEKDFAAEVVHPGDLKNSVEVALNKLLDPIREKFNTPALKKLASAAYPDPSKQKPMAKGPAKNSEPEEVI
notes: In monomer-dimer equilibrium; also called WT mini-YRS; mini-tyrosyl tRNA synthetase
[2]
  Kd: ~100 nM
[3]
  fold lower dimer-monomer dissociation constant than Δ159-161: ~1000 fold

B3: F260EY201EI278E T2-WRS variant (stable monomer) (enzyme)
chain: SAKGIDYDKLIVRFGSSKIDKELINRIERATGQRPHHFLRRGIFFSHRDMNQVLDAYENKKPFYLYTGRGPSSEAMHVGHLIPFIFTKWLQDVFNVPLVIQMTDDEKELWKDLTLDQAYSYAVENAKDIIACGFDINKTFIFSDLDYMGMSSGFYKNVVKIQKHVTENQVKGIFGFTDSDCIGKESFPAIQAAPSFSNSFPQIFRDRTDIQCLIPCAIDQDPYFRMTRDVAPRIGYPKPALLHSTFFPALQGAQTKMSASDPNSSIFLTDTAKQIKTKVNKHAFSGGRDTIEEHRQFGGNCDVDVSFMYLTFFLEDDDKLEQIRKDYTSGAMLTGELKKALIEVLQPLIAEHQARRKEVTDEIVKEFMTPRKLSFDFQHHHHHH
notes: Residue numbers of the mutations are those of full-length WRS; also called monomer T2-WRS; T2-WRS (F260EY201EI278E)
[4]
  Kd: 1340 nM

## B4
[5]
  Kd: 437 nM
[6]
  Kd: 472 nM

## B5
[7]
  Kd: 1520 nM

B6: Flavo-KRS (70-584) with T285C mutation (enzyme)
chain: SVDPNQYYKIRSQAIHQLKVNGEDPYPHKFHVDISLTDFIQKYSHLQPGDHLTDITLKVAGRIHAKRASGGKLIFYDLRGEGVKLQVMANSRNYKSEEEFIHINNKLRRGDIIGVQGNPGKTKKGELSIIPYEITLLSPCLHMLPHLHFGLKDKETRYRQRYLDLILNDFVRQKFIIRSKIITYIRSFLDELGFLEIETPMMNIIPGGAVAKPFICYHNELDMNLYMRIAPELYHKMLVVGNMGLFYGSSTCYTEMAAEKIRDIIGPELVTLHNLKDDSPKLMEQYDVLILGIPTWDFGEIQEDWEAVWDQLDDLNLEGKIVALYGLGDQLGYGEWFLDALGMLHDKLSTKGVKFVGYWPTEGYEFTSPKPVIADGQLFVGLALDETNQYDLSDERIQSWCEQILNEMARVYEIGRQFRNEGIDLTHNPEFTTCEFYMAYADYHDLMEITEKMVSGMVKHITGSYKVTYHPDGPEGQAYDVDFTPPFRRINMVEELEKALGMKLPETNLFETEETRKILDDICVAKAVECPPPRTTARLLDKLVGEFLEVTCINPTFICDHPQIMSPLAKWHRSKEGLTERFELFVMKKEICNAYTELNDPMRQRQLFEEQAKAKAAGDDEAMFIDENFCTALEYGLPPTAGWGMGIDRVAMFLTDSNNIKEVLLFPAMKPEDKKENVATAGHHHHHH
notes: also called T285C Flavo-KRS
[1]
  binding result: no binding

B7: non-associating monomeric Δ159-161 variant of mini-YRS (enzyme)
chain: MGDAPSPEEKLHLITRNLQEVLGEEKLKEILKERELKIYWGTATTGKPHVAYFVPMSKIADFLKAGCEVTILFADLHAYLDNMKAPWELLELRVSYYENVIKAMLESIGVPLEKLKFIKGTDYQLSKEYTLDVYRLSSVVTQHDSKKAGAEVVKQVEHSGLLYPGLQALDEEYLKVDAQFGGIDQRKIFTFAEKYLPALGYSKRVHLMNPMVPGLTGSKMSSSEEESKIDLLDRKEDVKKKLKKAFCEPGNVENNGVLSFIKHVLFPLKSEFVILRDEKWGGNKTYTAYVDLEKDFAAEVVHPGDLKNSVEVALNKLLDPIREKFNTPALKKLASAAYPDPSKQKPMAKGPAKNSEPEEVI
notes: also called the monomer
[8]
  Kd: ~100000 nM

B8: truncated human KRS (residues 70-584 of full-length lysyl-tRNA synthetase) with C-terminal 6xHis tag (enzyme)
chain: not shown
notes: Homodimer (alpha2) in solution; also called native human KRS (70-584); native KRS
[9]
  binding result: binds
